In patent US7867500B2, “Cofactor that modulates steroid receptor activities” (The United States of America as represented by the …, priority 2004, dated 2011):

Biological target: T1, androgen receptor (AR) (Homo sapiens, UniProt P10275)
T1 construct: the whole cell actions of TIF2 with full length AR and TRβ; expressed in transfected cells; host or cells: CV-1
T1 sequence (P10275 1-920): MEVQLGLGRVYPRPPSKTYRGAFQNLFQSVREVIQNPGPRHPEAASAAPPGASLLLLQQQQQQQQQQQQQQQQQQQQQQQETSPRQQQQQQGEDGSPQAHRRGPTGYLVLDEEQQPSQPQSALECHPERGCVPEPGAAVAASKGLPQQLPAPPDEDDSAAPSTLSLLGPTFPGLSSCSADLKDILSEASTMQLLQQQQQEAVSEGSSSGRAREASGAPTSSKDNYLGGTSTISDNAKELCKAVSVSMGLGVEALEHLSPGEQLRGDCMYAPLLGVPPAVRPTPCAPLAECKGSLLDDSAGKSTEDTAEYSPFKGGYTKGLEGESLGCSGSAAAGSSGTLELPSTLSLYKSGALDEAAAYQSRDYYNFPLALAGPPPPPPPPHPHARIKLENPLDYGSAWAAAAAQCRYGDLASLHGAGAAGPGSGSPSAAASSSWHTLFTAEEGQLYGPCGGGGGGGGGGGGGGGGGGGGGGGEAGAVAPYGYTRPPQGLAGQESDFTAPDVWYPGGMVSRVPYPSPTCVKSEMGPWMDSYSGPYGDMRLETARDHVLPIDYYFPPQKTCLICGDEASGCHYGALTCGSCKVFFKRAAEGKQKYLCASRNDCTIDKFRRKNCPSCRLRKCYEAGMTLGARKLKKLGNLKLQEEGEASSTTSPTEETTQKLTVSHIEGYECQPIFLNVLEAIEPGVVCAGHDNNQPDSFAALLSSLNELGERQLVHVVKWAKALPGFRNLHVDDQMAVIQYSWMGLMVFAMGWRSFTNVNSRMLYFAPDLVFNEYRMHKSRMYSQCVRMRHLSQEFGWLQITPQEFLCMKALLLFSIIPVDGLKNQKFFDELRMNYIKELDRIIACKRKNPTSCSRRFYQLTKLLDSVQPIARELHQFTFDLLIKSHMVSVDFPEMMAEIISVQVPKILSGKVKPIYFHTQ
Assay: AR-mediated induction of GREtkLUC reporter in CV-1 cells
Format: cell-based
Details: R1881
Method: FIG. 6D1-2 illustrate the effects of STAMP and TIF2 on androgen receptor (AR, FIG. 6D1) and thyroid receptor β (TRβ, FIG. 6D2) expression. […] Luciferase activities, normalized to the internal Renilla control values, and the fold changes in EC50 and fold induction were determined and plotted as in FIG. 4B.

B1: STAMP: SRC-1 and TIF2 Associated Modulatory Protein, 1277 amino acid human polypeptide, expressed from transfected plasmid (protein)
chain: MARDLEETASSSEDEEVISQEDHPCIMWTGGCRRIPVLVFHADAILTKDNNIRVIGERYHLSYKIVRTDSRLVRSILTAHGFHEVHPSSTDYNLMWTGSHLKPFLLRTLSEAQKVNHFPRSYELTRKDRLYKNIIRMQHTHGFKVFHILPQTFLLPAEYAEFCNSYSKDRGPWIVKPVASSRGRGVYLINNPNQISLEENILVSRYINNPLLIDDFKFDVRLYVLVTSYDPLVIYLYEEGLARFATVRYDQGAKNIRNQFMHLTNYSVNKKSGDYVSCDDPEVEDYGNKWSMSAMLRYLKQEGRDTTALMAHVEDLIIKTIISAELAIATACKTFVPHRSSCFELYGFDVLIDSTLKPWLLEVNLSPSLACDAPLDLKIKASMISDMFTVVGFVCQDPAQRASTRPIYPTFESSRRNPFQKPQRCRPLSASDAEMKNLVGSAREKGPGKLGGSVLGLSMEEIKVLRRVKEENDRRGGFIRIFPTSETWEIYGSYLEHKTSMNYMLATRLFQDRMTADGAPELKIESLNSKAKLHAALYERKLLSLEVRKRRRRSSRLRAMRPKYPVITQPAEMNVKTETESEEEEEVALDNEDEEQEASQEESAGFLRENQAKYTPSLTALVENTPKENSMKVREWNNKGGHCCKLETQELEPKFNLMQILQDNGNLSKMQARIAFSAYLQHVQIRLMKDSGGQTFSASWAAKEDEQMELVVRFLKRASNNLQHSLRMVLPSRRLALLERRRILAHQLGDFIIVYNKETEQMAEKKSKKKVEEEEEDGVNMENFQEFIRQASEAELEEVLTFYTQKNKSASVFLGTHSKISKNNNNYSDSGAKGDHPETIMEEVKIKPPKQQQTTEIHSDKLSRFTTSAEKEAKLVYSNSSSGPTATLQKIPNTHLSSVTTSDLSPGPCHHSSLSQIPSAIPSMPHQPTILLNTVSASASPCLHPGAQNIPSPTGLPRCRSGSHTIGPFSSFQSAAHIYSQKLSRPSSAKAGSCYLNKHHSGIAKTQKEGEDASLYSKRYNQSMVTAELQRLAEKQAARQYSPSSHINLLTQQVTNLNLATGIINRSSASAPPTLRPIISPSGPTWSTQSDPQAPENHSSSPGSRSLQTGGFAWEGEVENNVYSQATGVVPQHKYHPTAGSYQLQFALQQLEQQKLQSRQLLDQSRARHQAIFGSQTLPNSNLWTMNNGAGCRISSATASGQKPTTLPQKVVPPPSSCASLVPKPPPNHEQVLRRATSQKASKGSSAEGQLNGLQSSLNPAASVPITSSTDPAHTKI
STAMP added by itself
  left-shift of the dose-response curve of ARs: not when added by itself
STAMP with TIF2
  fold induction by AR: no additional effect
STAMP without TIF2
  fold induction by AR: increases the fold induction
In the presence of TIF2
  left-shift of the dose-response curve of ARs: augments the left-shift
